Here are results for nine molecules from US20220235143A1 (Memorial Sloan Kettering, published 2022).

As usually defined, the Kd is the equilibrium constant for the complex coming apart. Read a high Kd as a looser complex. One may read the koff as the first-order rate constant of dissociation. Higher therefore signals fast dissociation. Broadly, the kon is the second-order rate constant of association. A higher kon goes with fast association.

Where no end group is shown, it is not given here.

In assay [1] the target is T1, MUC16 c114 expressed on transfected SKOV3 cells (SKOV3^c114) (human).
T1 construct: also called deltaMUC16c114; c114 peptide
T1 chain: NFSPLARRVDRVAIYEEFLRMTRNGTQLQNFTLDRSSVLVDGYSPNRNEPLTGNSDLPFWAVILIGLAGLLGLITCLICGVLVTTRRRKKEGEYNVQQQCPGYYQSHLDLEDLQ
Kind of assay: flow cytometry, PE-Texas Red axis 10^0 to 10^5, secondary antibody detection; untransfected SKOV3 Cells + DFO-hu4H11 + Sec Ab lie with their controls below about 5 x 10^2. (In general: In flow cytometry, cells or beads pass a laser one at a time.)

The target in assay [2] is T2, biotinylated MUC16 peptide-2 (human, also: biotinylated (position not given here)).
T2 construct: Captured on streptavidin sensor (SPR) or streptavidin magnetic beads (radioligand assays); also called biotinylated peptide-2
T2 peptide: TLDRSSVLVDGYSPNRNE
As to the kind of experiment: SPR, BIAcore X100, single cycle kinetics, antibody over captured biotinylated peptide-2. How it is done:
The relative binding affinities of 4H11 humanized antibodies (H1L1, H1L2, H2L1, H2L2) were compared by surface plasmon resonance using a BIACore-X100 instrument with a Biotin CAP Chip (GE Healthcare). The assay format consisted of capturing the biotinylated MUC16 peptide-2 ([…]; SEQ ID NO: 52) onto a streptavidin coated sensor and flowing over the antibody at various concentrations using single cycle kinetics. Ligand capture was performed by flowing 0.5 μg/ml of biotinylated MUC16 peptide-2 at a rate of 5 μl per minute for 65 seconds. The 4H11 humanized antibodies were then flowed over at the various test concentrations (150 nM, 75 nM, 37.5 nM, 18.8 nM, and 9.4 nM). The assay conditions used for measuring the effects of the added antibodies were as follows: association time of 2 minutes, disassociation time of 10 min, and a flow rate of 30 μl per minute.

The target of assay [3] is T1, MUC16 c114 expressed on transfected …. Kind of assay: FACS, geometric mean PE fluorescence, SKOV3 c114 transfectant cells, mouse anti-human IgG1-Fc-PE detection; same antibody on vector control SKOV3 phrGFP about 170, at the level of secondary alone (about 170). As to the method: (§1) In a separate experiment, full-length humanized 4H11 antibodies (IgG1-Fc) comprising different combinations of humanized heavy and light chain variable regions of the 4H11 antibody were assayed. An anti-human IgG1-Fc-PE antibody was employed for fluorescent staining of MUC16-positive OVCAR3 or SKOV3 transfectant cells expressing MUC16 peptides. FIGS. 10A and 10B provide data for mean PE fluorescence and percentage PE positive cells for the 4H11 H1L1, H1L2, H2L1 and H2L2 antibodies assayed.

The target is the same in assay [4]. Kind of assay: FACS, geometric mean PE fluorescence, SKOV3 c114 transfectant cells, mouse anti-human IgG1-Fc-PE detection; same antibody on vector control SKOV3 phrGFP about 200, secondary alone about 170. As to the method:
as §1

In assay [5] the target is T3, MUC16 peptide-2 glycopeptide (human, also: glycopeptide, glycan and its site not given here).
T3 peptide: TLDRSSVLVDGYSPNRNE
Kind of assay: SPR, BIAcore X100, peptide-2 glycopeptide over antibody captured by anti-IgG. As to the method: Ligand capture was performed by flowing the humanized anti-Muc16 antibodies 18C6 H1L1, 18C6 H1L2, 18C6 H2L1, 18C6 H2L2) and the parental 18C6 mouse antibody onto the respective chips under saturating conditions. The MUC16 peptide-2 was then flowed over at the various test concentrations (150 nM, 75 nM, 37.5 nM, 18.8 nM, and 9.4 nM). The assay conditions used for measuring the effects of the glycopeptide were as follows: association time of 2 minutes, disassociation time of 10 min, and a flow rate of 30 μl per minute.

B1: humanized variant of 4H11 (hu4H11), DFO immunoconjugate (antibody, V domains shown)
VH: EVKLQESGGGFVKPGGSLRVSCAASGFTFSSYAMSWVRLAPEMRLEWVATISSAGGYIFYSDSVQGRFTISRDNAKNSLHLQMGSLRSGDTAMYYCARQGFGNYGDYYAMDYWGQGTTVTVSS
VL: DIELTQSPSSLAVSAGERVTMNCKSSQSLLNSRTRKNQLAWYQQKPGQSPELLIYWASTRQSGVPDRFSGSGSGTDFTLTISSVQAEDVAVYYCQQSYNLLTFGPGTKLEIKR
modifications: p-SCN-Bn-DFO on lysine epsilon-amines, ~1 DFO conjugated per antibody; 89Zr-labelled where named [^89Zr]Zr-DFO-hu4H11
notes: both entries are variable regions (H1 and L1); Full-length antibody; also called DFO-hu4H11; [^89Zr]Zr-DFO-hu4H11
As to B1, the binding result in assay [1] is listed as “binds”.

B2: 4H11-H1L1 hIgG (antibody)
heavy: not shown
light: DIELTQSPSSLAVSAGERVTMNCKSSQSLLNSRTRKNQLAWYQQKPGQSPELLIYWASTRQSGVPDRFSGSGSGTDFTLTISSVQAEDVAVYYCQQSYNLLTFGPGTKLEIKRTVAAPSVFIFPPSDEQLKSGTASVVCLLNNFYPREAKVQWKVDNALQSGNSQESVTEQDSKDSTYSLSSTLTLSKADYEKHKVYACEVTHQGLSSPVTKSFNRGEC
notes: also called humanized 4H11 H1L1
In assay [2], B2 gave a Kd of 1.57 nM, a koff of 0.000146 s⁻¹ and a kon of 92700 M⁻¹ s⁻¹.

B3: 4H11-H1L2 hIgG (antibody)
heavy: not shown
light: DIVLTQSPDSLAVSLGERVTMNCKSSQSLLNSRTRKNQLAWYQQKPGQSPELLIYWASTRQSGVPDRFSGSGSGTDFTLTISSVQAEDVAVYYCQQSYNLLTFGQGTKLEIKRTVAAPSVFIFPPSDEQLKSGTASVVCLLNNFYPREAKVQWKVDNALQSGNSQESVTEQDSKDSTYSLSSTLTLSKADYEKHKVYACEVTHQGLSSPVTKSFNRGEC
notes: also called H1L2 humanized 4H11 antibody
Regarding B3, in assay [2], binding was put at a Kd of 2.19 nM, the koff was determined as 0.000198 s⁻¹ and the kon came to 90400 M⁻¹ s⁻¹.

B4: 4H11-H2L2 hIgG (antibody)
heavy: not shown
light: DIVLTQSPDSLAVSLGERVTMNCKSSQSLLNSRTRKNQLAWYQQKPGQSPELLIYWASTRQSGVPDRFSGSGSGTDFTLTISSVQAEDVAVYYCQQSYNLLTFGQGTKLEIKRTVAAPSVFIFPPSDEQLKSGTASVVCLLNNFYPREAKVQWKVDNALQSGNSQESVTEQDSKDSTYSLSSTLTLSKADYEKHKVYACEVTHQGLSSPVTKSFNRGEC
With B4, the binding result in assay [3] was “binds”. Besides, in assay [2], the Kd came to 2.37 nM, the koff is 0.000175 s⁻¹ and the kon was 73800 M⁻¹ s⁻¹.

B5: 4H11-H2L1 hIgG (antibody)
heavy: not shown
light: DIELTQSPSSLAVSAGERVTMNCKSSQSLLNSRTRKNQLAWYQQKPGQSPELLIYWASTRQSGVPDRFSGSGSGTDFTLTISSVQAEDVAVYYCQQSYNLLTFGPGTKLEIKRTVAAPSVFIFPPSDEQLKSGTASVVCLLNNFYPREAKVQWKVDNALQSGNSQESVTEQDSKDSTYSLSSTLTLSKADYEKHKVYACEVTHQGLSSPVTKSFNRGEC
With B5, the binding result in assay [4] was “binds”. For the same molecule, in assay [2], binding was put at a Kd of 1.33 nM, the koff is 0.000101 s⁻¹ and the kon was determined as 76100 M⁻¹ s⁻¹.

B6: 18C6 H1L1 humanized antibody (antibody, human IgG1, kappa, V domains shown)
VH: QVTLKESGPGILQPTQTLTLTCTFSGFSLSTVGMGVGWSRQPSGKGLEWLAHIWWDDEDKYYNPALKSRLTITKDTSKNQVFLKITNVDTADTATYYCTRIGTAQATDALDYWGQGTLVTVSS
VL: DIVMTQSAPSVPVTPGESVSISCRSSKSLLHSNGNTYLYWFLQKPGQSPQRLIYYMSNLASGVPDRFSGRGSGTDFTLKISRVEAEDVGVYYCMQSLEYPLTFGGGTKLEIKR
notes: also called H1L1 humanized 18C6 antibody
With B6, in assay [5], the Kd worked out at 6.7 nM, the koff came to 0.0019 s⁻¹ and the kon is 287000 M⁻¹ s⁻¹.

B7: 18C6 H1L2 humanized antibody (antibody, human IgG1, kappa, V domains shown)
VH: QVTLKESGPGILQPTQTLTLTCTFSGFSLSTVGMGVGWSRQPSGKGLEWLAHIWWDDEDKYYNPALKSRLTITKDTSKNQVFLKITNVDTADTATYYCTRIGTAQATDALDYWGQGTLVTVSS
VL: DIVMTQSALSLPVTPGEPVSISCRSSKSLLHSNGNTYLYWFLQKPGQSPQRLIYYMSNLASGVPDRFSGSGSGTDFTLKISRVEAEDVGVYYCMQSLEYPLTFGGGTKLEIKR
Take B7: in assay [5], binding was put at a Kd of 8.7 nM, the koff amounted to 0.0025 s⁻¹ and the kon stood at 287000 M⁻¹ s⁻¹.

B8: 18C6 H2L1 humanized antibody (antibody, human IgG1, kappa, V domains shown)
VH: QVTLKESGPTLVKPTQTLTLTCTFSGFSLSTVGMGVGWSRQPSGKGLEWLAHIWWDDEDKYYNPALKSRLTITKDTSKNQVVLTITNVDPVDTATYYCTRIGTAQATDALDYWGQGTLVTVSS
VL: DIVMTQSAPSVPVTPGESVSISCRSSKSLLHSNGNTYLYWFLQKPGQSPQRLIYYMSNLASGVPDRFSGRGSGTDFTLKISRVEAEDVGVYYCMQSLEYPLTFGGGTKLEIKR
For the molecule B8, in assay [5], the affinity, expressed as Kd, was 9.9 nM; the koff is 0.0054 s⁻¹; the kon was determined as 549000 M⁻¹ s⁻¹.

B9: 18C6 H2L2 humanized antibody (antibody, human IgG1, kappa, V domains shown)
VH: QVTLKESGPTLVKPTQTLTLTCTFSGFSLSTVGMGVGWSRQPSGKGLEWLAHIWWDDEDKYYNPALKSRLTITKDTSKNQVVLTITNVDPVDTATYYCTRIGTAQATDALDYWGQGTLVTVSS
VL: DIVMTQSALSLPVTPGEPVSISCRSSKSLLHSNGNTYLYWFLQKPGQSPQRLIYYMSNLASGVPDRFSGSGSGTDFTLKISRVEAEDVGVYYCMQSLEYPLTFGGGTKLEIKR
B9: in assay [5], the Kd is 9.2 nM, the koff worked out at 0.004 s⁻¹ and the kon came out at 433000 M⁻¹ s⁻¹.
